According to patent US20250051476A1 (ABDERA THERAPEUTICS, published 2025):

Assays:
human DLL3 = biological target: T1, human DLL3 (human, UniProt Q9NYJ7 27-492, limits assumed); assay: ELISA
T1 construct: also called hDLL3; Delta-like protein 3
T1 sequence (looked up): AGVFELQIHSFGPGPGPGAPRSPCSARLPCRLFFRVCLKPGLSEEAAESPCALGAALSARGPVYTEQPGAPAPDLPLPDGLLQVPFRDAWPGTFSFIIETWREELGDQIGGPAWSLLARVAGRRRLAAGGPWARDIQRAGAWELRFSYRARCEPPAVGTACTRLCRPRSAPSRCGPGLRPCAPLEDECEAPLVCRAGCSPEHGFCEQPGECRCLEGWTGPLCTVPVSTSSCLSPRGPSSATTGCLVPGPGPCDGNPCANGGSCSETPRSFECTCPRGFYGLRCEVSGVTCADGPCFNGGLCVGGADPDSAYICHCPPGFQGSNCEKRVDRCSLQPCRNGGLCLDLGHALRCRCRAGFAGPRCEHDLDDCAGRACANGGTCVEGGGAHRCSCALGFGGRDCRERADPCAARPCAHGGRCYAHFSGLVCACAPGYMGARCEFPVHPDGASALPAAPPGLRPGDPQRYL

mouse DLL3 = biological target: T2, mouse DLL3 (mouse, UniProt O88516 25-477, limits assumed); assay: ELISA
T2 construct: also called mDLL3; murine DLL3
T2 sequence (looked up): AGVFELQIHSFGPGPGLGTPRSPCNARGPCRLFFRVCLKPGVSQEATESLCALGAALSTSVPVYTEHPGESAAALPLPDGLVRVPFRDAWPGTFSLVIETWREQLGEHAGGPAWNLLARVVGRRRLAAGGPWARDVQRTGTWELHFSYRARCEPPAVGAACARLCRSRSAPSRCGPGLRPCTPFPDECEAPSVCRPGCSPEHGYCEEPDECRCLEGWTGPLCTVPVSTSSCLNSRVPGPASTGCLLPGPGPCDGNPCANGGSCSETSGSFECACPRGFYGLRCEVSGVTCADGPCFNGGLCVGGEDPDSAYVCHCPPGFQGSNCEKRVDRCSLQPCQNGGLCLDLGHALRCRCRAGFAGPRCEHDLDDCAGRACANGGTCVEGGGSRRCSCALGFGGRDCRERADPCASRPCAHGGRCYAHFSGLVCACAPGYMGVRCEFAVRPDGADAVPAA

B1: 107_zu1 (Fc fusion)
chain: QVQLVESGGGLVQPGGSLRLSCAASDRTFSSYAVGWFRQAPGQGLEAVAAISWNGGRTLYTDSVTGRFTISRDNSKNTLYLQMNSLRAEDTAVYYCAARPAAPTRRLEYDYWGQGTLVTVSSEPKSSDKTHTCPPCPAPEAEGAPSVFLFPPKPKDTLMISRTPEVTCVVVDVSHEDPEVKFNWYVDGVEVHNAKTKPREEQYNSTYRVVSVLTVLHQDWLNGKEYKCKVSNKALPSSIEKTISKAKGQPREPQVYTLPPSREEMTKNQVSLTCLVKGFYPSDIAVEWESNGQPENNYKTTPPVLDSDGSFFLYSKLTVDKSRWQQGNVFSCSVMHEALHNQYTQKSLSLSPG
notes: Humanized VHH-Fc
binding result (human DLL3): binds

B2: 186_zu3 (Fc fusion)
chain: QVQLVESGGGLVQPGGSLRLSCAASGFDFSTYTVNWYRQAPGQGLEKVARISSTGTTTNYANSAKGRFTISRDNSKNTLYLQMNSLRAEDTAVYYCAAERFDSNYWGQGTLVTVSSEPKSSDKTHTCPPCPAPEAEGAPSVFLFPPKPKDTLMISRTPEVTCVVVDVSHEDPEVKFNWYVDGVEVHNAKTKPREEQYNSTYRVVSVLTVLHQDWLNGKEYKCKVSNKALPSSIEKTISKAKGQPREPQVYTLPPSREEMTKNQVSLTCLVKGFYPSDIAVEWESNGQPENNYKTTPPVLDSDGSFFLYSKLTVDKSRWQQGNVFSCSVMHEALHNQYTQKSLSLSPG
notes: Humanized VHH-Fc
binding result (mouse DLL3): no binding
binding result (human DLL3): binds

B3: 186_zu4 (Fc fusion)
chain: QVQLVESGGGLVQPGGSLRLSCAASGFDFSTYTVNWYRQAPGQEREKVARISSTGTTTNYANSAKGRFTISRDNSKNTLYLQMNSLRAEDTAVYYCAAERFDSNYWGQGTLVTVSSEPKSSDKTHTCPPCPAPEAEGAPSVFLFPPKPKDTLMISRTPEVTCVVVDVSHEDPEVKFNWYVDGVEVHNAKTKPREEQYNSTYRVVSVLTVLHQDWLNGKEYKCKVSNKALPSSIEKTISKAKGQPREPQVYTLPPSREEMTKNQVSLTCLVKGFYPSDIAVEWESNGQPENNYKTTPPVLDSDGSFFLYSKLTVDKSRWQQGNVFSCSVMHEALHNQYTQKSLSLSPG
notes: Humanized VHH-Fc
binding result (mouse DLL3): no binding
binding result (human DLL3): binds

B4: 186_zu5 (Fc fusion)
chain: QVQLVESGGGLVQPGGSLRLSCAASGFDFSTYTVNWYRQAPGKEREKVARISSTGTTTNYANSAKGRFTISRDNSKNTLYLQMNSLRAEDTAVYYCAAERFDSNYWGQGTLVTVSSEPKSSDKTHTCPPCPAPEAEGAPSVFLFPPKPKDTLMISRTPEVTCVVVDVSHEDPEVKFNWYVDGVEVHNAKTKPREEQYNSTYRVVSVLTVLHQDWLNGKEYKCKVSNKALPSSIEKTISKAKGQPREPQVYTLPPSREEMTKNQVSLTCLVKGFYPSDIAVEWESNGQPENNYKTTPPVLDSDGSFFLYSKLTVDKSRWQQGNVFSCSVMHEALHNQYTQKSLSLSPG
notes: Humanized VHH-Fc
binding result (mouse DLL3): no binding
binding result (human DLL3): binds

B5: 24_zu4 (Fc fusion)
chain: QVQLVESGGGLVQPGGSLRLSCAASGFTFSSYRINWYRQAPGQGRELVASITDTGSTNYADSVKGRFTISRDNSKNTLYLQMNSLRAEDTAVYYCAAPTIAAYWGQGTLVTVSSEPKSSDKTHTCPPCPAPEAEGAPSVFLFPPKPKDTLMISRTPEVTCVVVDVSHEDPEVKFNWYVDGVEVHNAKTKPREEQYNSTYRVVSVLTVLHQDWLNGKEYKCKVSNKALPSSIEKTISKAKGQPREPQVYTLPPSREEMTKNQVSLTCLVKGFYPSDIAVEWESNGQPENNYKTTPPVLDSDGSFFLYSKLTVDKSRWQQGNVFSCSVMHEALHNQYTQKSLSLSPG
notes: Humanized VHH-Fc
binding result (mouse DLL3): no binding
binding result (human DLL3): no binding

B6: 24_zu1 (Fc fusion)
chain: QVQLVESGGGLVQPGGSLRLSCAASGFTFSSYRINWFRQAPGQGLEAVASITDTGSTNYADSVKGRFTISRDNSKNTLYLQMNSLRAEDTAVYYCAAPTIAAYWGQGTLVTVSSEPKSSDKTHTCPPCPAPEAEGAPSVFLFPPKPKDTLMISRTPEVTCVVVDVSHEDPEVKFNWYVDGVEVHNAKTKPREEQYNSTYRVVSVLTVLHQDWLNGKEYKCKVSNKALPSSIEKTISKAKGQPREPQVYTLPPSREEMTKNQVSLTCLVKGFYPSDIAVEWESNGQPENNYKTTPPVLDSDGSFFLYSKLTVDKSRWQQGNVFSCSVMHEALHNQYTQKSLSLSPG
notes: Humanized VHH-Fc
binding result (human DLL3): binds

B7: 24_zu2 (Fc fusion)
chain: QVQLVESGGGLVQPGGSLRLSCAASGFTFSSYRINWFRQAPGQGLELVASITDTGSTNYADSVKGRFTISRDNSKNTLYLQMNSLRAEDTAVYYCAAPTIAAYWGQGTLVTVSSEPKSSDKTHTCPPCPAPEAEGAPSVFLFPPKPKDTLMISRTPEVTCVVVDVSHEDPEVKFNWYVDGVEVHNAKTKPREEQYNSTYRVVSVLTVLHQDWLNGKEYKCKVSNKALPSSIEKTISKAKGQPREPQVYTLPPSREEMTKNQVSLTCLVKGFYPSDIAVEWESNGQPENNYKTTPPVLDSDGSFFLYSKLTVDKSRWQQGNVFSCSVMHEALHNQYTQKSLSLSPG
notes: Humanized VHH-Fc
binding result (mouse DLL3): no binding
binding result (human DLL3): no binding

B8: 24_zu3 (Fc fusion)
chain: QVQLVESGGGLVQPGGSLRLSCAASGFTFSSYRINWYRQAPGQGLELVASITDTGSTNYADSVKGRFTISRDNSKNTLYLQMNSLRAEDTAVYYCAAPTIAAYWGQGTLVTVSSEPKSSDKTHTCPPCPAPEAEGAPSVFLFPPKPKDTLMISRTPEVTCVVVDVSHEDPEVKFNWYVDGVEVHNAKTKPREEQYNSTYRVVSVLTVLHQDWLNGKEYKCKVSNKALPSSIEKTISKAKGQPREPQVYTLPPSREEMTKNQVSLTCLVKGFYPSDIAVEWESNGQPENNYKTTPPVLDSDGSFFLYSKLTVDKSRWQQGNVFSCSVMHEALHNQYTQKSLSLSPG
notes: Humanized VHH-Fc
binding result (mouse DLL3): no binding
binding result (human DLL3): no binding

B9: 24_zu5 (Fc fusion)
chain: QVQLVESGGGLVQPGGSLRLSCAASGFTFSSYRINWYRQPPGKGRELVGSITDTGSTNYADSVKGRFTISRDNSKNTLYLQMNSLRAEDTAVYYCAAPTIAAYWGQGTLVTVSSEPKSSDKTHTCPPCPAPEAEGAPSVFLFPPKPKDTLMISRTPEVTCVVVDVSHEDPEVKFNWYVDGVEVHNAKTKPREEQYNSTYRVVSVLTVLHQDWLNGKEYKCKVSNKALPSSIEKTISKAKGQPREPQVYTLPPSREEMTKNQVSLTCLVKGFYPSDIAVEWESNGQPENNYKTTPPVLDSDGSFFLYSKLTVDKSRWQQGNVFSCSVMHEALHNQYTQKSLSLSPG
notes: Humanized VHH-Fc
binding result (mouse DLL3): no binding
binding result (human DLL3): no binding

B10: 100_zu4 (Fc fusion)
chain: QVQLVESGGGLVQPGGSLRLSCAASGIVFNSDVMGWYRQAPGQPRELVATITGGGSTNYATSVKGRFTISRDNSKNTLYLQMNSLRAEDTAVYYCAARRGDSMLAFWGQGTLVTVSSEPKSSDKTHTCPPCPAPEAEGAPSVFLFPPKPKDTLMISRTPEVTCVVVDVSHEDPEVKFNWYVDGVEVHNAKTKPREEQYNSTYRVVSVLTVLHQDWLNGKEYKCKVSNKALPSSIEKTISKAKGQPREPQVYTLPPSREEMTKNQVSLTCLVKGFYPSDIAVEWESNGQPENNYKTTPPVLDSDGSFFLYSKLTVDKSRWQQGNVFSCSVMHEALHNQYTQKSLSLSPG
notes: Humanized VHH-Fc
binding result (mouse DLL3): no binding
binding result (human DLL3): no binding

B11: 100_zu2 (Fc fusion)
chain: QVQLVESGGGLVQPGGSLRLSCAASGIVFNSDVMGWFRQAPGQGLELVATITGGGSTNYATSVKGRFTISRDNSKNTLYLQMNSLRAEDTAVYYCAARRGDSMLAFWGQGTLVTVSSEPKSSDKTHTCPPCPAPEAEGAPSVFLFPPKPKDTLMISRTPEVTCVVVDVSHEDPEVKFNWYVDGVEVHNAKTKPREEQYNSTYRVVSVLTVLHQDWLNGKEYKCKVSNKALPSSIEKTISKAKGQPREPQVYTLPPSREEMTKNQVSLTCLVKGFYPSDIAVEWESNGQPENNYKTTPPVLDSDGSFFLYSKLTVDKSRWQQGNVFSCSVMHEALHNQYTQKSLSLSPG
notes: Humanized VHH-Fc
binding result (mouse DLL3): no binding
binding result (human DLL3): no binding

B12: 100_zu3 (Fc fusion)
chain: QVQLVESGGGLVQPGGSLRLSCAASGIVFNSDVMGWYRQAPGQGLELVATITGGGSTNYATSVKGRFTISRDNSKNTLYLQMNSLRAEDTAVYYCAARRGDSMLAFWGQGTLVTVSSEPKSSDKTHTCPPCPAPEAEGAPSVFLFPPKPKDTLMISRTPEVTCVVVDVSHEDPEVKFNWYVDGVEVHNAKTKPREEQYNSTYRVVSVLTVLHQDWLNGKEYKCKVSNKALPSSIEKTISKAKGQPREPQVYTLPPSREEMTKNQVSLTCLVKGFYPSDIAVEWESNGQPENNYKTTPPVLDSDGSFFLYSKLTVDKSRWQQGNVFSCSVMHEALHNQYTQKSLSLSPG
notes: Humanized VHH-Fc
binding result (mouse DLL3): no binding
binding result (human DLL3): no binding
